Measured values taken from patent publication US10568950B1, “Peptides, combination of peptides and scaffolds for use in immunotherapeutic treatment of various cancers” (Immatics Biotechnologies GmbH, priority 2015, dated 2020).

Legend:
HLA-A*02 = HLA-A*02 (Homo sapiens, UniProt P04439, D140Y/D185E/D98H/E176V/E277Q/G131W/G231S/I119V/I121R/I166T/I218V/N151K/N90K/P208A/P217A/Q86G/Q94H/R138H/R169H); experiment: MHC binding assay: UV-ligand exchange, beta2m ELISA (peptide exchange yield); details: binding to HLA-A*02, β2m ELISA
Text: (§1) Candidate peptides for T cell based therapies according to the present invention were further tested for their MHC binding capacity (affinity). The individual peptide-MHC complexes were produced by UV-ligand exchange, where a UV-sensitive peptide is cleaved upon UV-irradiation, and exchanged with the peptide of interest as analyzed. Only peptide candidates that can effectively bind and stabilize the peptide-receptive MHC molecules prevent dissociation of the MHC complexes. To determine the yield of the exchange reaction, an ELISA was performed based on the detection of the light chain (β2m) of stabilized MHC complexes. The assay was performed as generally described in Rodenko et al. (Rodenko et al., 2006).
(§2) 96 well MAXISorp plates (NUNC) were coated over night with 2 ug/ml streptavidin in PBS at room temperature, washed 4× and blocked for 1 h at 37° C. in 2% BSA containing blocking buffer. […] Peptide-MHC monomers of the UV-exchange reaction were diluted 100 fold in blocking buffer. Samples were incubated for 1 h at 37° C., washed four times, incubated with 2 ug/ml HRP conjugated anti-βm for 1 h at 37° C., washed again and detected with TMB solution that is stopped with […]. Absorption was measured at 450 nm. Candidate peptides that show a high exchange yield (preferably higher than 50%, most preferred higher than 75%) are generally preferred for a generation and production of antibodies or fragments thereof, and/or T cell receptors or fragments thereof, as they show sufficient avidity to the MHC molecules and prevent dissociation of the MHC complexes.

HLA-A*24 = experiment: as above; design: species or system human; details: binding to HLA-A*24, β2m ELISA
Text: as §1, §2

| Substance | Peptide exchange (MHC class I binding score, peptide exchange yield) (HLA-A*02) | Peptide exchange (MHC class I binding score, peptide exchange yield) (HLA-A*24) |
| --- | --- | --- |
| 75 (ILDNVKNLL; listed as Homo sapiens) [compound 75] | +++ (50%-75% = +++) |  |
| 76 (ILLDESNFNHFL; listed as Homo sapiens) [compound 76] | +++ (50%-75% = +++) |  |
| 77 (IVLSTIASV; listed as Homo sapiens) [compound 77] | +++ (50%-75% = +++) |  |
| 78 (LLWGHPRVA; listed as Homo sapiens) [compound 78] | +++ (50%-75% = +++) |  |
| 79 (SLVPLQILL; listed as Homo sapiens) [compound 79] | ++++ (>= 75% = ++++) |  |
| 80 (TLDEYLTYL; listed as Homo sapiens) [compound 80] | +++ (50%-75% = +++) |  |
| 81 (VLFLGKLLV; listed as Homo sapiens) [compound 81] | ++ (20%-49% = ++) |  |
| 82 (VLLRVLIL; listed as Homo sapiens) [compound 82] | ++ (20%-49% = ++) |  |
| 83 (ELLEYLPQL; listed as Homo sapiens) [compound 83] | +++ (50%-75% = +++) |  |
| 84 (FLEEEITRV; listed as Homo sapiens) [compound 84] | +++ (50%-75% = +++) |  |
| 85 (STLDGSLHAV; listed as Homo sapiens) [compound 85] | +++ (50%-75% = +++) |  |
| 87 (YLTEVFLHVV; listed as Homo sapiens) [compound 87] | +++ (50%-75% = +++) |  |
| 88 (ILLNTEDLASL; listed as Homo sapiens) [compound 88] | +++ (50%-75% = +++) |  |
| 89 (YLVAHNLLL; listed as Homo sapiens) [compound 89] | +++ (50%-75% = +++) |  |
| 90 (GAVAEEVLSSI; listed as Homo sapiens) [compound 90] | + (<20% = +) |  |
| 91 (SSLEPQIQPV; listed as Homo sapiens) [compound 91] | + (<20% = +) |  |
| 92 (LLRGPPVARA; listed as Homo sapiens) [compound 92] | ++ (20%-49% = ++) |  |
| 93 (SLLTQPIFL; listed as Homo sapiens) [compound 93] | +++ (50%-75% = +++) |  |
| 97 (TYTFLKETF; listed as Homo sapiens) [compound 97] |  | ++++ (>= 75% = ++++) |
| 116 (AYVIAVHLF; listed as Homo sapiens) [compound 116] |  | ++++ (>= 75% = ++++) |
| 128 (VYPFDWQYI; listed as Homo sapiens) [compound 128] |  | ++++ (>= 75% = ++++) |

| Substance | Peptide exchange (MHC class I binding score, peptide exchange yield) (HLA-A*02) | Peptide exchange (MHC class I binding score, peptide exchange yield) (HLA-A*24) |
| --- | --- | --- |
| 129 (KYIDYLMTW; listed as Homo sapiens) [compound 129] |  | ++++ (>= 75% = ++++) |
| 135 (VYEAMVPLF; listed as Homo sapiens) [compound 135] |  | ++++ (>= 75% = ++++) |
| 148 (SYGTVSQIF; listed as Homo sapiens) [compound 148] |  | ++++ (>= 75% = ++++) |
| 149 (SYGTVSQI; listed as Homo sapiens) [compound 149] |  | ++++ (>= 75% = ++++) |
| 153 (VYVPFGGKSMITF; listed as Homo sapiens) [compound 153] |  | ++++ (>= 75% = ++++) |
| 154 (VYGVPTPHF; listed as Homo sapiens) [compound 154] |  | ++++ (>= 75% = ++++) |
| 173 (QYLEKYYNL; listed as Homo sapiens) [compound 173] |  | ++++ (>= 75% = ++++) |
| 184 (IYSVGAFENF; listed as Homo sapiens) [compound 184] |  | ++++ (>= 75% = ++++) |
| 185 (QYLVHVNDL; listed as Homo sapiens) [compound 185] |  | ++++ (>= 75% = ++++) |
| 187 (AYAANVHYL; listed as Homo sapiens) [compound 187] |  | ++++ (>= 75% = ++++) |
| 196 (GYIRGSWQF; listed as Homo sapiens) [compound 196] |  | ++++ (>= 75% = ++++) |
| 197 (IFTDIFHYL; listed as Homo sapiens) [compound 197] |  | ++++ (>= 75% = ++++) |
| 206 (NYLDVATFL; listed as Homo sapiens) [compound 206] |  | ++++ (>= 75% = ++++) |
| 208 (TYLEKIDGF; listed as Homo sapiens) [compound 208] |  | ++++ (>= 75% = ++++) |
| 209 (AFIETPIPLF; listed as Homo sapiens) [compound 209] |  | ++++ (>= 75% = ++++) |
| 210 (IYAGVGEFSF; listed as Homo sapiens) [compound 210] |  | ++++ (>= 75% = ++++) |
| 211 (VFKSEGAYF; listed as Homo sapiens) [compound 211] |  | ++++ (>= 75% = ++++) |
| 217 (IYISNSIYF; listed as Homo sapiens) [compound 217] |  | ++++ (>= 75% = ++++) |
| 220 (SYSEIKDFL; listed as Homo sapiens) [compound 220] |  | ++++ (>= 75% = ++++) |
| 221 (KYIGNLDLL; listed as Homo sapiens) [compound 221] |  | ++++ (>= 75% = ++++) |
| 223 (TFITQSPLL; listed as Homo sapiens) [compound 223] |  | ++++ (>= 75% = ++++) |

| Substance | Peptide exchange (MHC class I binding score, peptide exchange yield) (HLA-A*02) | Peptide exchange (MHC class I binding score, peptide exchange yield) (HLA-A*24) |
| --- | --- | --- |
| 231 (AFADVSVKF; listed as Homo sapiens) [compound 231] |  | ++++ (>= 75% = ++++) |
| 248 (AFPTFSVQL; listed as Homo sapiens) [compound 248] |  | ++++ (>= 75% = ++++) |
| 321 (SLWFKPEEL; listed as Homo sapiens) [compound 321] | +++ (50%-75% = +++) |  |
| 323 (ILSVVNSQL; listed as Homo sapiens) [compound 323] | +++ (50%-75% = +++) |  |
| 324 (AIFDFCPSV; listed as Homo sapiens) [compound 324] | ++++ (>= 75% = ++++) |  |
| 325 (RLLPKVQEV; listed as Homo sapiens) [compound 325] | ++ (20%-49% = ++) |  |
| 326 (SLLPLVWKI; listed as Homo sapiens) [compound 326] | +++ (50%-75% = +++) |  |
| 327 (SIGDIFLKY; listed as Homo sapiens) [compound 327] | +++ (50%-75% = +++) |  |
| 328 (SVDSAPAAV; listed as Homo sapiens) [compound 328] | ++ (20%-49% = ++) |  |
| 329 (FAWEPSFRDQV; listed as Homo sapiens) [compound 329] | ++ (20%-49% = ++) |  |
| 330 (FLWPKEVEL; listed as Homo sapiens) [compound 330] | +++ (50%-75% = +++) |  |
| 333 (GTFLEGVAK; listed as Homo sapiens) [compound 333] | +++ (50%-75% = +++) |  |
| 334 (GRADALRVL; listed as Homo sapiens) [compound 334] | +++ (50%-75% = +++) |  |
| 335 (VLLAAGPSAA; listed as Homo sapiens) [compound 335] | ++ (20%-49% = ++) |  |
| 336 (GLMDGSPHFL; listed as Homo sapiens) [compound 336] | ++ (20%-49% = ++) |  |
| 337 (KVLGKIEKV; listed as Homo sapiens) [compound 337] | +++ (50%-75% = +++) |  |
| 338 (LLYDGKLSSA; listed as Homo sapiens) [compound 338] | ++ (20%-49% = ++) |  |
| 339 (VLGPGPPPL; listed as Homo sapiens) [compound 339] | ++ (20%-49% = ++) |  |
| 340 (SVAKTILKR; listed as Homo sapiens) [compound 340] | ++ (20%-49% = ++) |  |
